Here are results for three compounds from PMC3839904, “The α-Proteobacteria Wolbachia pipientis Protein Disulfide Machinery Has a Regulatory Mechanism Absent in γ-Proteobacteria” (PLoS ONE, 2013).

The target of one assay is T1, α-DsbB (Wolbachia pipientis, UniProt Q73G63).
T1 construct: gene WD_1099; full-length integral membrane protein, pET21a (NdeI/XhoI) in E. coli BL21(DE3)pLysS, beta-DDM solubilised, TALON and size exclusion purified
T1 sequence (Q73G63 1-173): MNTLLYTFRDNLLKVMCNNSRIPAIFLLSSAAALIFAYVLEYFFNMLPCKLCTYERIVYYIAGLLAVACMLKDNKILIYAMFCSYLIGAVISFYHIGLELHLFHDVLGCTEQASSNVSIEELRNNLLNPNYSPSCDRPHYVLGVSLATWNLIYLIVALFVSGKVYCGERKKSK
As to the kind of experiment: UQ1 reduction, absorbance at […] nm; AMS gel shift. The class given is biochemical. The note with it: reduced α-DsbA1 […] as electron donor, pH […] beta-DDM, […]°C. In general terms: In EMSA bound probe runs differently from free probe, usually more slowly.

The target of assay [1] is Wolbachia pipientis wMel α-DsbB (integral membrane protein) (Wolbachia pipientis wMel).
The target is the same in assay [2]. The source holds these as a separate data set.
Assay [3] deals with α-DsbB [SSCC] (the two cysteines of the first periplasmic loop replaced with serines) (Wolbachia pipientis wMel).
The target in assay [4] is Wolbachia pipientis wMel α-DsbB (integral membrane protein) (Wolbachia pipientis wMel). The source holds these as a separate data set.
For assay [5] the target is unchanged. The source holds these as a separate data set.

As to `COC1=C(OC)C(=O)C(CC=C(C)C)=C(C)C1=O` [UQ1, ubiquinone-1], the “UQ1 reduction, absorbance at 275 nm; AMS gel shift” value at α-DsbB is recorded as “UQ1 reduction was coupled with α-DsbB-mediated oxidation of α-DsbA1”.

“Wolbachia pipientis wMel α-DsbA1 (enzyme)” had an initial rate of UQ1 reduction (absorbance at 275 nm) with α-DsbB (50 nM), UQ1 (30 µM) and reduced α-DsbA1 (30 µM), 30°C in assay [1] of 0.236 min⁻¹. The compound also displayed an initial rate of oxidation of the peptide substrate (time-resolved fluorescence) by α-DsbA1 with α-DsbB membranes (endogenous UQ), pH 5.5 in assay [2] of 0.00477 min^-1. Also, the reverse reaction: gel-shift of the oxidation of reduced α-DsbB [SSCC] by oxidized α-DsbA1, within 15 min (% of α-DsbB [SSCC] oxidized) in assay [3] was 50.

“α-DsbA1CA (α-DsbA1 variant with the cysteines of the non-catalytic disulfide replaced with alanine) (enzyme)” displayed an initial rate of UQ1 reduction (absorbance at 275 nm) with α-DsbB, UQ1 and reduced α-DsbA1CA, 30°C in assay [1] of 0.463 min⁻¹. For the same compound, in assay [4], the initial rate of oxidation of the peptide substrate (time-resolved fluorescence) by α-DsbA1CA with wt α-DsbB membranes came to 0.00621 min⁻¹. The gel-shift (AMS labelling) of the redox state of reduced α-DsbA1CA with α-DsbB and UQ1; oxidised variant against oxidised wt at 30 sec, 2 min, 5 min (3, 2 and 1.3 fold) in assay [5] was found to be 3 fold.
